According to PMC7579404, “A Novel KPC Variant KPC-55 in Klebsiella pneumoniae ST307 of Reinforced Meropenem-Hydrolyzing Activity” (Frontiers in Microbiology, 2020):

Columns and labels:
[1] = system: CC(C)(O/N=C(\C(=O)N[C@@H]1C(=O)N2C(C(=O)[O-])=C(C[n+]3ccccc3)CS[C@H]12)c1csc(N)n1)C(=O)O; test: purified protein; settings: 50 mM morpholinepropanesulfonic acid pH 7.0, 50 mM NaCl, 100 mM sodium phosphate pH 7.0, 30°C
[2] = system: CC(C)(O/N=C(\C(=O)N[C@@H]1C(=O)N2C(C(=O)[O-])=C(C[n+]3ccccc3)CS[C@H]12)c1csc(N)n1)C(=O)O; test: purified protein; type: biochemical, Klebsiella pneumoniae; settings: 50 mM morpholinepropanesulfonic acid pH 7.0, 50 mM NaCl, 100 mM sodium phosphate pH 7.0, 30°C

Row | Substance | Km [1] [µM] | kcat [1] [s⁻¹] | kcat/Km [1] [M⁻¹ s⁻¹] | Km [2] [µM] | kcat [2] [s⁻¹] | kcat/Km [2] [M⁻¹ s⁻¹]
1 | KPC-2 (and its variant KPC-55 = KPC-2 Y264N) (Klebsiella pneumoniae; Y262N) | 0.40 ± 0.11 | 0.2 | 450000 |  |  | 
2 | KPC-2 (and its variant KPC-55 = KPC-2 Y264N) (Klebsiella pneumoniae) |  |  |  | 0.28 ± 0.09 | 0.02 ± 0.003 | 70000 ± 20000
